Molecular target: the molecule itself
Assay: native gel or EMSA

B1: Ugo1 precursor, 35S-labeled (natural protein, S. cerevisiae, UniProt Q03327 1-502, looked up)
chain: MNNNNVTEATSRAQIRPYYDPDSFNAGYSAVFKPDEGVVDPHGYTIASKLNVINSSPTTKRMANALFKSSPMKKLSNSVNDGLSLEGSNGEITGLNNFEWAELVNIQKWRKIFEQLLDMFFRKYFQLLIQQPFDVARLLIQVGEFKIFKTTVDTNKPQAPIILRDEEGDGAAREGEEDAYDEEEIDFFPIERKIAEANSTAPIMAEETDHSHHEPTDISLTIAPQSLHTIDVINALFDQEGIRGLWKANNTTFIYNFLSLSIDTWFTGLLSSFLGVPDPYFMEVINSPDISKSFILALGAGVFTSIILLPVDLIRTRLIVTSFKKKKNVKTDGKNMVTNTRSLRQLIRCWSWRKNGVSIPLDMWSLTILQSINNSFFNKLFDLVIYNQFHIEKYSQTVMYNTMKFFSKSLELFIKLPLENLLRRCQLNYLLNDQRLSFKVDSTELIVKPKKYNGIWDVIRNNSNTNRGQLWNGWKVGVISLICGYGLQMMNKVDINMEQEKF
modifications: [35S]methionine
stoichiometry N: 2
